One protein from publication PMC3358306 can be followed below.

Substrate in this data set: Nc1ncnc2c1ncn2[C@@H]1O[C@H](COP(=O)(O)OP(=O)(O)OP(=O)(O)O)[C@@H](O)[C@H]1O
The data set is described as follows: purified protein. The class given is biochemical, Archaeoglobus fulgidus. The settings on record: Mg2+ ATP binding pocket.

B1: afRio1 (Rio1 kinase) (Archaeoglobus fulgidus DSM 4304) (protein)
chain: MKDLKKIESYLDKLRIKEKDGEERKIYAEVLDGRTLKTLYKLSAKGYITAMGGVISTGKEANVFYADGVFDGKPVAMAVKIYRIETSEFDKMDEYLYGDERFDMRRISPKEKVFIWTEKEFRNLERAKEAGVSVPQPYTYMKNVLLMEFIGEDELPAPTLVELGRELKELDVEGIFNDVVENVKRLYQEAELVHADLSEYNIMYIDKVYFIDMGQAVTLRHPMAESYLERDVRNIIRFFSKYGVKADFEEMLKEVKGE
notes: full-length
As to B1, the Michaelis-Menten constant (Km) is listed as 0.4 µM and the Vmax was 0.000156 µmol/min.
